Measured values taken from a protein production outcome set (Wang et al. 2014).

Test: label from the status in PepcDB records
With “MKTTLIISTYNRPEALSVCLDSVRFQTVMPDEVIVGDDGSTSETKDLIESFKKDFPVPLIHLWQEDKGFRLAMMRNKSVAAATGDYIIEIDGDIFLHNKFVEDHKRLAKPGHYLRGTRVNLGQKLTEEICKSKVNRRIYPWTIGIQNRAETAIHSTPVSNFFADRYKKNVSSGLGCNMSFWRSDFLAINGYDEFFEGWGKEDDDLTHRLQRKGCKKRSLRFAGIVYHLWHGHESMESDQKNAEYFRKNNEKNIVYCENGVSKYLKQELEHHHHHH” the protein production was “not failed”.
For “MKTTYNRWWKKKVWFGRKDMSYKVIVDSCGEFTPEMKADGGFEHVALGIQIEDTQWTDDDSLKQEELLLKIAESTSCAKTSCPSPERYMESYHCDAERIYVVTLSAELSGSYNSAVLGKNLYEEEYGEKQIHVFNSRSASVGETLIALKVQQCEKAGMTFEEVVESVECYIEEQHTYFVLENLDTLRKNGRLTGIKSLVAGALNIKPIMGSTPQGTICQKEKARGMKKALVKMADCVAADVVNAGDKILAIAHCNCEERAKEVQRLLKERFAVKSSFIVDTSGISTVYANDGGIIVVV”, the protein production was “not failed”.
For “MKTYTLIATAPMGIEAIVAKEVRDLGYDCTVDNGKVVFEGDALAICRANLWLRTADRVKVQAAEFIAKTFDELFEKTKAIDWSAYLPEHASFPVTGKSVKSVLASVPDCQRIVKKAIAEKLKSEYQTQGEWLEETGPEYKIEVSLLKDKAVITLDSSGAGLHKRGYRTGQGEAPLKETLAAALILLTNWTPDRPFVDPFCGSGTIPIEAALIGQNIAPGFNRDFASERWEWIGKEVWDQARLEVEEKANYDQPLSISGYDLDHRMIEIAKANAEEAGLADFIEFKQMQVKDFRTKEEYGVIVGNPPYGERLGEKKAVEAMYKDMGKAFAELDTWSVYMLTSNERFEECYGKKATKKRKLFNGFIKTDYYQYWGKRPPKPNKEK”, the protein production was “not failed”.
In the case of “MKVALGGTFEPLHEGHKKLIDVAIKLGGRDITIGVTSDRMARARIRSVLPFAIRAENVKRYVMRKYGFEPEIVKITNPYGKTLDVDFEYLVVSPETYEMALKINQKREELGKRKITIVKVDWMMAEDGKPISSTRIKRGEID”, the protein production is reported as “not failed”.
In the case of “MKVAVLVGGVGRRIGMEKTEVMLCGKKLIEWVLEKYSPFQTVFVCRDEKQAEKLSSRYEAEFIWDLHKGVGSIAGIHAALRHFGSCVVAAIDMPFVKPEVLEHLYKEGEKAGCDALIPKHDYPEPLLAYYAESAADELERAILQGIRKILVPLERLNVVYYPVEKLRKFDKELISFFNINTPDDLKRAEEICSKMSTEGLLEHHHHHH”, the protein production is reported as “not failed”.
In the case of “MKVCLQCENFFSSADWACPSCGYQPERLNGIEAHASEFAHGGGGFKPEYFSELSRLEAGNFWFRARNELILWALRTYKPNAGAFLEVGCGTGFVLSGIARACPEIALNGSEIFLAGLFHAAKRVPSTHFMQMDARRVPFVEEFDAIGAFDVLEHIEEDETVLAQLHNAIKPSGVLLLTVPQHPRLWSASDDYACHVRRYTRVEIEQKVLTAGFELLRSSSFVTSLLPVMMLSRVLQKRKTKDFDPAGELKINAALNKVFYGLMMLELAGIRLGMNYPVGGSRLVVAKKQSALEHHHHHH”, the protein production is reported as “not failed”.
With “MKVFIAGGRGRVGSLLADNLEAKGIEVVSGGLEDGIDVISGKGLTEALAGVDTIVNVLNTPRFDAEGAISFFEGAINNLTAEGERAGVRHHIVLSIVGVGQGDASEVGYYLGKVAQEKAVRSASIPATIIRATQFQSYIPVLIDQHTVDGKVIAPRSFVQPVELDEVIELLAEAATTLEPGSEVEIAGPDRFYHDDLFRATLADRGDDREVVTVDAEGAPDVMVPRGAYRTGTVRYPITGIPTV” the protein production was “failed”.
In the case of “MKVGAVVITMGNRPEELRALLDSVAKQDGDPVQVVVVGNGSPVPEVPEGVRTVELPENLGIPGGRNVGIEAFGPGGSDVDILLFLDDDGLLARTDTAELCREAFAADDELGIISFRIADPDTGETQRRHVPRLRASDPMRSSRVTTFLGGANAVRTRVLTQVGGLPDAFFYAHEETDLAWRALDAGWMIDYRSDMVLNHPTTAPSRHAVYHRMVARNRVWLARRNLPALLVPVYLGVWMALTLLRRPSRPALKAWFGGFREGWATPCGPRRPMRWRTVWRLTRLGRPPVI”, the protein production is reported as “failed”.
For “MKVIMTTKVDKASMNIMNKLIENFGFKETEYVFDGNPVYKRGDVLILTTNDEMIYYDYLDREIENQLGFKPEIIAFASRHSSKQKLPALTTHVTGNWGKAMYGGKDESFAVAIPSAMKLSLLKMSELNDLGWTVCYEATHHGPTELEVPSFFIEIGSSEEEWINDRAGEIIAETIIYVLDNYEKGRSKFKVALGIGGGHYAPKQTKRALEGDLAFGHILPKYAQPVSRDVMIKALNRFGEKVEAIYVDWKGSRGETRQLAKSLAQELGLEFIKD”, the protein production was “not failed”.
In the case of “MKVLLDTNIIVDFLSKRPVFFNEAEKIISKCRDGEIIGIVAVHTVSTLFYLLKKYVSPETLRDIFYNLFEIIEIGRADKNSVLEALKNTEFTDFEDGLQYQCALEEFVDCIITRNKKDFFSSKIPVYTPSEFLKSLLEHHHHHH”, the protein production is reported as “failed”.
For “MKVLREDEESEIVKQFLDDNNSVIVDFDPIDLYEAVHPPFSIRLSIDRISAMPLSILRRRAAAFVSDPQTLSKLLNNDIAGKFDFIYDNSNRSWQKYYPFSYYRSINAADLYENIKAYTVLDVREPFELIFGSIANSINIPISELREKWKILERDKKYAVICAHGNRSAAAVEFLSQLGLNIVDVEGGIQSWIEEGYPVVYGRESAED”, the protein production was “failed”.
With “MKVLVFICGEGLGHTSRGIALGRELLAAGHEVYLGAYGYSKEFIERKGYKTVEIPPEIKLVGESGSLNLKRSIISTLKGGNVFGIFKVLSLLKEKKPDIVVSDSYFTGVVASKIRGIPVYLIVNQSNMETFFKNGGIALRTMGGIIKQFYSCIFRRVDRIVIPDFPMPYTVCRLNLAFEEKVSKNLFFSGPLTLKKFDDVKAEVLQKPHVLSLIGGFGYREPIFRKVIEVAKLDKSINYTLLSGPSLNPDVFSNLPENVTIKRFINDQFPYLKASDLVIAPGGHSTIMEALTFGVPVLSFPDINHSEQESNATVVDLAGYGKRLDYSASPEEILRSIKELLKDEKIHQKVEIMKKLSKDLNATATFKELLESNSKRSQKV” the protein production was “failed”.
In the case of “MKVNETGVEELNPYPDRPGERDCQFYLRTGLCGYGSSCRYNHPTHLPQDVAYYKEELPERIGQPDCEYFLKTGACKYGPTCKYHHPKDRNGAQPVMFNVIGLPMRLGEKPCPYYLRTGTCRFGVACKFHHPQPDNGHSTAYGMSSFPAADLRYASGLTMMSTYGTLPRPQVPQSYVPILVSPSQGFLPPQGWAPYMAASNSMYNVKNQPYYSGSSASMAMAVALNRGLSESSDQPECRFFMNTGTCKYGDDCKYSHPGVRISQPPPSLINPFVLPARPGQPACGNFRSYGFCKFGPNCKFDHPMLPYPGLTMATSLPTPFASPVTTHQRISPTPNRSDSKSLSNGKPDVKKESSETEKPDNGEVQDLSEDASSP”, the protein production is reported as “failed”.
For “MKVNKFITIYKDIAQQIEGGRWKAEEILPSEHELTAQYGTSRETVRKALHMLAQNGYIQKIRGKGSVVLNREKMQFPVSGLVSFKELAQTLGKETKTTVHKFGLEPPSELIQKQLRANLDDDIWEVIRSRKIDGEHVILDKDYFFRKHVPHLTKEICENSIYEYIEGELGLSISYAQKEIVAEPCTDEDRELLDLRGYDHMVVVRNYVFLEDTSLFQYTESRHRLDKFRFVDFARRGK”, the protein production was “not failed”.
With “MKVNPDFFPLTQMAQRFVDQLAQCRRLGLTVLEASEHHVLIELPYSTELIGYPDTGVIHGGVITTLMDTACGSAVVSAIFQKYQSLEISPTLDLRVDYMKPAQPHKSVYGFAECYKLSSNIAFTRAIAYQDSIDDPIAHAVGSFMRISPEMVGDAFRQALIGLEHHHHHH” the protein production was “not failed”.
In the case of “MKVRNVIIGFMVASLTGCSMGHRDPVEIKQTLDKSINENGGLLLADLPASVQADLMPELNTPHVEVEEPVKRFRVRANGVGAKAFFTSLVKGTEYSVVIHPQVSGRITMNLSDVTMDDVLSSVEDLYGYDIVKAGKVLQVYPATIRTETIPVDYLQLTRKGRSLTTITTGSITNSDNNSSNNNNSSSKSNNNSSSSSSSATGGTEIETTSESDFWKELETAISVMIGNGADRSVVVSPQASVVTITASPDELRKVKQFLGTSHKRLQRQVILEAKLLEVTLSDGYQQGINWSNLTASLGGTDVVFGQTSGLVQGALPGMDTIGTLLGGQTNITVSDGNFQAVLSFMDTQGDLNVLSSPRVTAANNQKAVIKVGRDEYYVTEVSSVTGSGDNSNASPEVTLTPFFSGISLDVTPQIDDKGNVMLHVHPSVIDVENEVKEIDLGDVGGVLKLPLAKSSIRESDSVIRAKSGDVVVIGGLMKSQTVDQVSKVPLLGDVPALGHLFRNVSQLTQKTELVILLKPTVVGVDTWQEELERSRDLLQEWFPDELEHHHHHH”, the protein production is reported as “not failed”.
With “MKVTSVGAAMLLLIVGNLIAVLSDSLIKSVANEVPMFQFVFFRQISAVMFLLPVCLLAKQTNFMEGFKWHAVRAHVWLLGAVFMVMAISSLPLATANAIFYAAPLIMLPLAAIFFGEQLSKQSVAAAVMGFAGVLVIIRPDQIDWAAISAFVVALTLAINNLLIRKLPKNQSVMQTLLMTNLAGIPVALLLVLIEDQPWQWGAFPVAAGSSLFIMIYAATCVLAYRSIDSNKIASAEYSGLIGAVVVGFIWFGEIPDIFMAIGTVMIVVPLIWLSKRERRKQKEHAQLQAQKEHEQQQAHVA” the protein production was “failed”.
In the case of “MKVVLAAIHPVPSPQAVPLANAFLKAYLGTDEELAARVAVTLCDFLRSTPADVCAAEILAHEPDAVGFSLYLWNTEESGRIAAELRRNRPGITIFAGGPQATADPLGTLTGGGYDFLILGEGEVPFLEVTARLADGRPFRGAPGTAWLDDGKLASRPQKPVALLDTIPSPFLSGIIEPGRYGGLLWQLSRGCDFACEYCFDYKGTKGVRRFSLERVDAELDFLVRHNVPQVFVLDSTFNVDAKRAKTILRMIRKRAPHIHFHFEVRSEFLDREMARLFAGITCSLQIGLQSADPAILKGIRRHFDPDDFRKRVALLNESGAVFGFDLIYGLPGDSLAGFRQSLDFALALYPNHLDIFPLAVLPGTPLAARAAQAGLDHLPAPPYALTATPTFPAPDMKRAARLAGACDIFYSRGKAVAWFNGVIAPLSLTPAEFLDAFGGWLARQGIEAREEALGDEAIWSLQRSFLAHIFADRRVRRLLPVALDLVDYHYHYAAALLAPPPELPTDRSLAGLNILDQVVCLAPSTRLARFSYEITDLLEAGNADLREICACFSPSPSWAVIYPRGNDIFTESLLESYFLLLEGLDGCCRAGDVVARLALSGEGAAEFLKFAAAEGIVTVRNCP”, the protein production is reported as “failed”.
With “MKVYIETMGCAMNSRDSEHLLSELSKLDYKETNDPKTADLILINTCSVREKPERKLFSEIGQFAKIKKPNAKIGVCGCTASHMGADILKKAPSVSFVLGARNVSKISQVIHKEKAVEVAIDYDESAYAFEFFEKKAQIRSLLNISIGCDKKCAYCIVPHTRGKEISIPMDLILKEAEKLANNGTKELMLLGQNVNNYGARFSSEHAKVDFSDLLDKLSEIQGIERIRFTSPHPLHMNDGFLERFAKNPKVCKSIHMPLQSGSSAVLKMMRRGYSKEWFLNRVERLKALVPEVGISTDIIVGFPNESDKDFEDTMEVLEKVRFDTLYSFIYSPRPFTEAGAWKERVPLEVSSSRLERLQNRHKEILEEKAKLEVGKTHVVLVENRREMDNQIVGFEGRSDTGKFIEVTCKEKRNPGELVKVEIISHSKGRLMAATKGN” the protein production was “failed”.
For “MKWEMGLQEEYIELIKAGKKKIEGRLYDEKRRQIKPGDIIIFEGGKLKVKVKGIRVYSSFKEMLEKEGIENVLPGVKSIEEGVKVYRQFYDEEREKKYGVVAIEIEPIE”, the protein production was “not failed”.
In the case of “MKWIEIYEKLVNIDTGPDLPLEGKLRRTSFLTEILEDLGFRVEKREAAYVAFRGKPPYVTLIGHLDTVFPEGESKRRPFTIEGNIAKGPGVCDMKGGVVILLESLKRFLQQNDTDLCVVLNVDEELGSPLSGEVFKEVAGMSSHCLSFEPGRENGELISSRKGIISLWLFARGKKGHASRLDEGANAIVELAFKVVELTSLNGRFPNLTLNPTIVKGGAESNVTPDKAEVYFDVRYYDDKEYEFLEETLKRLSAVHPEANVSYTLKLRRLPMKEDPDFVNIVKMSAEEIGMTVSFVRATGGGDVAFFSQNGVPSIDGLGIPGGKMHSEDEYARLDQFEDRVNLVVHLLRKLGGEKNVR”, the protein production is reported as “not failed”.
